What was measured:
[1] = target: T1, recombinant UPK2 extracellular domain (UPK2-His) (Homo sapiens (Human), UniProt O00526 85-155); assay: ELISA, antibody dilution series on UPK2-his coated at 0.5 ug/ml, OD490
T1 construct: Made in E. coli; not shown: His tag
T1 sequence: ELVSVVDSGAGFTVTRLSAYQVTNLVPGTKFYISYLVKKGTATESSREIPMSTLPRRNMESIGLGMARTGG
Method: The ability of recombinant whole antibodies to bind antigen UPK2-His was analyzed using a classical ELISA method.

[2] = target: T1, recombinant UPK2 extracellular domain …; assay: SPR, BIAcore X-100; antibody captured by anti-human antibody on chip, UPK2-His as mobile phase
Method: (§1) The affinity of the eight monoclonal antibodies was analyzed using GE's BIAcore X-100. Affinity analysis was performed using a conventional procedure by first capturing the human monoclonal antibody with an anti-human antibody coated on a chip, and then using different concentrations of recombinant UPK2-His as the mobile phase for affinity analysis. […] Among them, the binding and dissociation of S7F11/S7G7 were slow, and the binding of S3D10 was too slow. When the three monoclonal antibodies were analyzed by BIAcore X-100 for affinity analysis, the automatic fitting of KD was poor, and the data was for reference only.

[3] = target: T1, recombinant UPK2 extracellular domain …; assay: SPR, BIAcore X-100; antibody captured, UPK2-His as mobile phase; remark Kd overrun, fit poor, for reference only
Method: as §1

[4] = target: T2, recombinantly expressed PAP (ACPP-His) (Homo sapiens (Human), UniProt P15309 33-379, limits assumed); assay: SPR, BIAcore X-100; antibody captured by anti-human antibody on chip, recombinant PAP as mobile phase; speculated value, read as weaker than 100 nM because the next sentence says S5D1 has the higher affinity
T2 construct: ACPP gene cloned into PTSE-His, expressed in HEK293, purified on Histrap FF; also called serum prostatic acid phosphatase; ACPP antigen; not shown: His tag from vector PTSE-His
T2 sequence: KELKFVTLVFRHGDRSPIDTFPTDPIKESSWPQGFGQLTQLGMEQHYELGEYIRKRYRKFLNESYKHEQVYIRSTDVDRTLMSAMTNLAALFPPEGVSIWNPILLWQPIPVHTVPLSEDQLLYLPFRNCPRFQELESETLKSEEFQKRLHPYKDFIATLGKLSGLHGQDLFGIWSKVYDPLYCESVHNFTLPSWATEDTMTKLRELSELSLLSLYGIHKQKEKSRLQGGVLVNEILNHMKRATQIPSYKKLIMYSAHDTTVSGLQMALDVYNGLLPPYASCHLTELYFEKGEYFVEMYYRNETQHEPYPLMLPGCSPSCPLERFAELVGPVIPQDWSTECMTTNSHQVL
Method: (§2) For the affinity assay in FIG. 10, the affinity of two monoclonal antibodies, S5D1 and S5F2, was analyzed using GE's BIAcore X-100 Biomolecular Interaction Analyzer. Affinity analysis was performed using a conventional procedure. The human monoclonal antibody S5D1 or S5F2 was captured using an anti-human antibody coated on a chip. Affinity analysis was then performed using different concentrations of recombinantly expressed PAP as the mobile phase. […] S5D1 has a higher affinity for ACPP antigen.

[5] = target: T1, recombinant UPK2 extracellular domain …; assay: phage ELISA, purified scFv phage on UPK2-his coated at 0.5 ug/ml, OD490
[6] = target: T1, recombinant UPK2 extracellular domain …; assay: SPR, BIAcore X-100; antibody captured, UPK2-His as mobile phase; remark U-value = 15, fit poor, for reference only
Method: as §1

[7] = target: T2, recombinantly expressed PAP (ACPP-His); assay: SPR, BIAcore X-100; antibody captured by anti-human antibody on chip, recombinant PAP as mobile phase
Method: as §2

[8] = target: T2, recombinantly expressed PAP (ACPP-His); assay: BIAcore X-100, antibody captured by anti-human antibody on the chip, recombinant PAP as the mobile phase
Method: as §2

[9] = target: T1, recombinant UPK2 extracellular domain …; assay: SPR, BIAcore X-100; antibody captured by anti-human antibody on chip, UPK2-His as mobile phase; exponent as printed, koff/kon gives 2.34e-8
Method: as §1

B1: recombinant anti-UPK2 monoclonal antibody S2E2 (murine-human chimeric) (antibody, V domains shown)
VH: QVKLQQSGPELVRPGASVKMSCKASGYTFTTYWMHWVKQRPGQGLEWIGMIDPSNSDTRLNQKFKDKATLNVDTSSNTAYMHLSSLTSEDSAVYYCTLGGTEYWGQGATLTVSS
VL: SIVMTQSPATLSVTPGDRVSLSCRASQSIGDYLHWFQQKSHESPRLLIKYASQSISGIPSRFSGSGSGSDFTLIINTMEPEDVGVYYCQNAHTYPYTFGGGTKLEIK
notes: Murine variable regions, human constant regions (vectors pTSEG1n, pTSEK), HEK293; also called UPK2-S2E2
With B1 the “EC50 (read off the curve)” value [1] was roughly 0.5 nM and the Kd [2] was 2.82 nM.

B2: recombinant anti-UPK2 monoclonal antibody S7F11 (murine-human chimeric) (antibody, V domains shown)
VH: EVQLKESGAELVRSGASVKLSCTASAFNIKDYYMNWMKQRPEQGLEWIGWIDPENGDTKYAPKFQGKATITADTSSSTAYLQLTSLTSEDSAVFYCNVNYKYDWFAYWGQGTLVTVSA
VL: DVVMTQSQKFMSTSVGDRVSVTCKASQNVGTNVAWYQQKPGQSPRALIYSASYRYSGVPDRFTGSGSGTDFTLTISNVQSEDLAEYFCQQYNTYPWTFGGGTKLEIK
notes: the first set is used here; Murine variable regions, human constant regions; also called UPK2-S7F11
B2 showed a Kd [3] of 2.32 nM.

B3: recombinant anti-UPK2 monoclonal antibody S3A4 (murine-human chimeric) (antibody, V domains shown)
VH: EVKLKQSGAELVKPGASVKLSCKASGYTLTSYYIYWVKQRPGQGLEWIGGISPSNGNTYFTEKFKNMATLTVDKSSNTAYMQLSSLTSEDSAVYYCARNYDYDVGFAYWGQGTLVTVSS
VL: DVVMTQTPLSLPVSLGDQASISCRSSQSIVHSNGNTYLEWYLQKPGQSPKLLIYKVSNRFSGVPDRFSGSGSGTDFTLKISRVEAEDLGVYYCFQGSHVPFTFGSGTKLEIK
notes: Murine variable regions, human constant regions (vectors pTSEG1n, pTSEK), HEK293; also called UPK2-S3A4
In the case of B3, the “EC50 (read off the curve)” value [1] is reported as roughly 0.6 nM and the Kd [2] is reported as 27.1 nM.

B4: recombinant anti-UPK2 monoclonal antibody S3C10 (murine-human chimeric) (antibody, V domains shown)
VH: QVQLKESGGGLVQPGESLKLSCESSEFPFPSHDMSWVRKTPEKRLELVAAINSDGGSTYYPDTMERRFIISRDNTKKTLYLQMSSLRSEDTALYYCASLPTFAYWGQGTLVTVSA
VL: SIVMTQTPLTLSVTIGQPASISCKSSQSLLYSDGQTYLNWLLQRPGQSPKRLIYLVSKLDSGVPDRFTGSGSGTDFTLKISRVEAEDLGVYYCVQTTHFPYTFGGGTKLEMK
notes: Murine variable regions, human constant regions (vectors pTSEG1n, pTSEK), HEK293; also called UPK2-S3C10
With B4 the “EC50 (read off the curve)” value [1] was roughly 0.5 nM and the Kd [2] was 0.911 nM.

B5: ACPP antibody S5F2 (human full antibody) (antibody, V domains shown)
VH: QVQLVQSGAEVKKPGSSVKVSCKASEDTFSSYVISWVRQAPGQGLEWMGAFIPLLGRVHYAQEFQGRLTITADESTGTAYMELKGLRSDDTAMYYCARDQGFAGDDAFDIWGQGTMVTVSS
VL: LPVLTQPPSASGTPGQRVTISCSGSSSNIGSNAVDWYQQLPGTAPKLLIYTNNRRPSGVPDRFSGSKSGTSGSLAISGLQFEDEADYYCAAWDDSLSGVIFGGGTKVTVL
notes: Human full antibody from vectors pTSEG1n and pTSEK, HEK293
B5 was tested, and the Kd [4] was greater than 100 nM.

B6: recombinant anti-UPK2 monoclonal antibody S7F9 (murine-human chimeric) (antibody, V domains shown)
VH: QVQLKQSGPGLVRPGASVTMSCKASGYTFTSNWMHWVKQRPGQGLDWIGMIDPSNSDTRLNQKFKDKATLNVDKSSNTAYMQLSSLTSDDSAVYYCMRGGGDYWGQGTTLTVSS
VL: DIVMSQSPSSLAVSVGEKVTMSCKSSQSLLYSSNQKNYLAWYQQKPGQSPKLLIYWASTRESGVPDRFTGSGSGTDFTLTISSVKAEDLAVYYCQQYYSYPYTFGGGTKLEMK
notes: Murine variable regions, human constant regions (vectors pTSEG1n, pTSEK), HEK293; also called UPK2-S7F9
For B6, the “EC50 (read off the curve)” value [1] was roughly 0.5 nM and the Kd [2] was 16.7 nM.

B7: scFv UPK2-S2B7 (phage display clone) (scFv)
scFv: EVQLQQSGAELMKPGTSVKMSCKAAGYTFTKYWIGWVKQRPGHGLEWIGDIYPGGGYTLFNEKFKGKATLTADTSSSTAYMQLSSLTSEDSAIYYCARGNYWGQGTTLTVSSGGGGSGGGGSGGGGSDVVMTQTPLTLSVTIGQPASISCKSSQSLLDSDGKTYLNWLLQRPGQSPKRLIYLVSKLDSGVPDRFTGSGSGTDFTLKISRVEAEDLGVYYCWQGTHFPHTFGGGTKLEMK
notes: also called clone S2B7
In the case of B7, the “EC50 (read off the curve)” value [5] is reported as roughly 3e+10 cfu/ml.

B8: recombinant anti-UPK2 monoclonal antibody S3D10 (murine-human chimeric) (antibody, V domains shown)
VH: QVQLQQSGAELVRSGASVKLSCTDSGFNIKDYYMNWVKQRPEQGLEWIGWIDPENGVTQYDPKFQGKATVTADTFSNTAYLQLSSLTSEDTAVYYCNANYKYDWFGYWGQGTLVTVSA
VL: NIVMTQSPSSLSASLGERVSLTCRASQEISGYLSWLQQKPDGTIKRLIYAASTLDSGVPERFSGSRSGSDYSLTISSLESEDFADYYCLQYASYPWTFGGGTKLEMK
notes: Murine variable regions, human constant regions (vectors pTSEG1n, pTSEK), HEK293; also called UPK2-S3D10
Work on B8 yielded a Kd [6] of 4060 nM.

B9: ACPP antibody S5D1 (human full antibody) (antibody, V domains shown)
VH: EVQLVQSGAEVKKPGESLKISCKGSGYTFTNYWIGWVRQMPGKGLEWMGRIYPSDSYTNYSPSFQGQVTISADKSISTAYLQWSSLKASDTAMYYCARDLEPTHHYSWGQGTLVTVSS
VL: QSVLTQPASVSGSPGQSVTISCTGTSSDVGGYNYVSWYQQHPGKPPKLMIYEVSKRPSGVPDRFSGSKSGNTASLTISGLQAEDEADYYCSSHTSSNTLIFGGGTKVTVL
notes: Variable regions cloned into vectors pTSEG1n (heavy) and pTSEK (light) and expressed in HEK293 as human full antibody; also called monoclonal antibody S5D1
B9 showed a Kd [7] of roughly 9 nM and a Kd [8] of 9.02 nM.

B10: recombinant anti-UPK2 monoclonal antibody S2B7 (murine-human chimeric) (antibody, V domains shown)
VH: EVQLQQSGAELMKPGTSVKMSCKAAGYTFTKYWIGWVKQRPGHGLEWIGDIYPGGGYTLFNEKFKGKATLTADTSSSTAYMQLSSLTSEDSAIYYCARGNYWGQGTTLTVSS
VL: not shown
notes: Murine variable regions, human constant regions (vectors pTSEG1n, pTSEK); also called UPK2-S2B7
B10 was tested, and the “EC50 (read off the curve)” value [1] was roughly 0.5 nM and the Kd [9] was 23.4 nM.
